Our source for the EC50 of intracellular calcium mobilization (Calcium-4, FlexStation, RFU) and Kd values is patent publication US20160151510A1.

In assay [1] the target is GLP-1 receptor on CHO-K1/GLP1/Gal5 cells. The assay can be described thus: cell-based or functional assay.
In assay [2] the target is GLP-1 receptor (covalently immobilized to the Biacore biosensor surface). The experiment in a line: Biacore SPR, GLP-1 receptor covalently immobilized, peptide injected. (In SPR one partner is held on a chip, and binding of the other changes the refractive index at the surface.)

As for “5 kDa-PEG-Cys(37)-GLP-1 (from UniProt P01275 27-56) (peptide)”, the EC50 of intracellular calcium mobilization (Calcium-4, FlexStation, RFU) in assay [1] is 336 nM. The substance further had a Kd in assay [2] of 1600 nM.
With “GLP-1 (7-36) (from UniProt P01275 27-56) (peptide)”, in assay [2], the Kd came to 1000 nM.

The Kd is the constant that tells how readily two partners part at equilibrium.
